Here are results for eight molecules from patent publication US20140178332A1 (published 2014).

Substitutions are numbered along the chain they refer to.

B1: anti-IL-12p40 hybrid antibody 1A6.3 (antibody, human IgG1, kappa, L234A L235A, V domains shown)
VH: EVTLKESGPVLVKPTETLTLTCTVSGFSLSTSGMGVSWIRQPPGKALEWLAHIWWDGDNYYNPSLKSRLTISKDTSKSQVVLTMTNMDPVDTATYYCARRTRVNYAMDYWGQGTTVTVSS
VL: SVVMTQTPKFLLVSAGDRVTITCKASQSVSNDVAWFQQKPGQSPKLLIYYASNRYTGVPDRFTGSGYGTDFTFTISTVQAEDLAVYFCQQDYNSPWTFGGGTKLEIKR
B2: anti-IL-12p40 hybrid antibody 1A6.8 (antibody, human IgG1, kappa, L234A L235A, V domains shown)
VH: B1 VH with K5R, V10A, E16Q, V24F, S78N
VL: B1 VL
B3: anti-IL-12p40 hybrid antibody 1D4.4 (antibody, human IgG1, kappa, L234A L235A, V domains shown)
VH: EVTLRESGPALVKPTQTLTLTCTFSGFSLSKSVMGVSWIRQPPGKALEWLAHIYWDDDKYYNPSLKSRLTISKDTSKNQVVLTMTNMDPVDTATYYCARRGIRSAMDYWGQGTTVTVSS
VL: B1 VL with F36Y, T74I, Q79R
B4: anti-IL-12p40 hybrid antibody 1A6.4 (antibody, human IgG1, kappa, L234A L235A, V domains shown)
VH: QVTLKESGPGILKPSQTLSLTCSFSGFSLSTSGMGVSWIRQPSGKGLEWLAHIWWDGDNYYNPSLKSQLTISKDTSRNQVFLRIATVDTADTATYYCARRTRVNYAMDYWGQGTSVTVSS
VL: EIVMTQSPATLSVSPGERATLSCKASQSVSNDVAWYQQKPGQAPRLLIYYASNRYTGIPARFSGSGSGTEFTLTISSLQSEDFAVYYCQQDYNSPWTFGGGTKVEIKR
notes: Hybrid: chimeric murine H chain paired with CDR-grafted L chain
B5: anti-IL-12p40 hybrid antibody 1D4.5 (antibody, human IgG1, kappa, L234A L235A, V domains shown)
VH: QVTLKESGPGILQPSQTLSLTCSFSGFSLRKSVMGVSWIRQPSGKGLEWLAHIYWDDDKYYNPSLKSRLTISKDPSRNQVFLKITSVDTADAATYYCTRRGIRSAMDYWGQGTSVTVSS
VL: DIVMTQSPDSLAVSLGERATINCKASQSVSNDVAWYQQKPGQPPKLLIYYASNRYTGVPDRFSGSGSGTDFTLTISSLQAEDVAVYYCQQDYNSPWTFGGGTKVEIKR
B6: anti-IL-12p40 hybrid antibody 1A6.7 (antibody, human IgG1, kappa, L234A L235A, V domains shown)
VH: B4 VH
VL: B5 VL
B7: murine anti-human IL-12p40 monoclonal antibody 1D8 (antibody, V domains shown)
VH: QVQLQQSGAELMKPGASVKISCKATGYTFSSYWIEWVKQRPGHGLEWIGDILPGSGSTNYNEKFKDKATFTADTSFNTAYMQLSSLTSEDSAVYYCATRRFRGLDYWGQGTTLTVSS
VL: B1 VL with V2I, F36Y, P40S, A80P, N93T, W96F, G100S
notes: Murine mAb
B8: murine anti-human IL-12p40 monoclonal antibody 3G7 (antibody, V domains shown)
VH: QVQLQQSGAELMKPGASVKISCKATGYTFNDYWIEWVKQRPGHGLEWIGGFSHGSGSTNYNEKFKGKATFTADSSSNTAYMQLSSLTSEDSAVYYCARRRFRGMDYWGQGTSVTVSS
VL: B1 VL with V2I, F36Y, S76T, N93S, T97S
notes: Murine mAb

In the first assay the target is T1, recombinant purified human IL-12 p70 (human, UniProt P29459 23-219).
T1 sequence 1: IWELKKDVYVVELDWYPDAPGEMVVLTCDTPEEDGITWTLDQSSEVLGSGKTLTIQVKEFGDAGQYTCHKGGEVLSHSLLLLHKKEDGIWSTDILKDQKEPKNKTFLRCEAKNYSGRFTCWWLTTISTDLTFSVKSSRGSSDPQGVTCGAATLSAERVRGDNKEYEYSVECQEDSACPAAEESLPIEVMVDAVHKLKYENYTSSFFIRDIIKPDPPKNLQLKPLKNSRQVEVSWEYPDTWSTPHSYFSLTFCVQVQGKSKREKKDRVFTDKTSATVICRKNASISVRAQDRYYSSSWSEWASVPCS
T1 sequence 2: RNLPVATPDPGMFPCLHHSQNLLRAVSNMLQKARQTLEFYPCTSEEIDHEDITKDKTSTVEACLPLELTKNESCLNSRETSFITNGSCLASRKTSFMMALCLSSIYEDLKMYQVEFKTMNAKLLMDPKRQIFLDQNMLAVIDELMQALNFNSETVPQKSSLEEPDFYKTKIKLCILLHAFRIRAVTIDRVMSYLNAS
The assay can be described thus: cell-based or functional assay.
Take B1: the “Av. IC50 (nM) huIL-12, PHA blast assay” value was determined as 0.068 nM.

Turning to B2, the “Av. IC50 (nM) huIL-12, PHA blast assay” value is 0.08 nM.

With B3, the “Av. IC50 (nM) huIL-12, PHA blast assay” value came to 0.64 nM.

For B4, the “Av. IC50 (nM) huIL-12, PHA blast assay” value worked out at 2.1 nM.

Consider B5, for which the “Av. IC50 (nM) huIL-12, PHA blast assay” value is 0.053 nM.

With B6, the “Av. IC50 (nM) huIL-12, PHA blast assay” value is 0.29 nM.

For another assay, the target named is T2, recombinant purified cyno IL-12 p70 (cynomolgus monkey).
T2 chain 1: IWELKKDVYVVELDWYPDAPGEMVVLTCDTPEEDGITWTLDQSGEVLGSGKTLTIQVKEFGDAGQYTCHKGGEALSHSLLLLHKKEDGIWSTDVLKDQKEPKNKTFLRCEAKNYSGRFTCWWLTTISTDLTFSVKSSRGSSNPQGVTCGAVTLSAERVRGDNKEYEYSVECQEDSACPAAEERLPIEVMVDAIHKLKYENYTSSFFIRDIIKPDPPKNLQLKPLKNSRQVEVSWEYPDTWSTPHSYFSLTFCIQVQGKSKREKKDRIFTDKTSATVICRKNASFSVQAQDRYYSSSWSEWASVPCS
T2 chain 2: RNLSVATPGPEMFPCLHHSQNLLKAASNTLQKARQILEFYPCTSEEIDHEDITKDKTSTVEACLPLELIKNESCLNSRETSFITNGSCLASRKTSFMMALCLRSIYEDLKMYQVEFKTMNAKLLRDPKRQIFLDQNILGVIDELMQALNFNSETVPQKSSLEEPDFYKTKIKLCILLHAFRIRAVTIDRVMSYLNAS
The assay is described as follows: cell-based or functional assay.
As to B1, the “Av. IC50 (nM) Cyno IL-12, PHA blast assay” value was 0.049 nM.

B2: the “Av. IC50 (nM) Cyno IL-12, PHA blast assay” value stood at 0.06 nM.

Regarding B3, the “Av. IC50 (nM) Cyno IL-12, PHA blast assay” value turned out to be 1.1 nM.

B4: the “Av. IC50 (nM) Cyno IL-12, PHA blast assay” value came out at 1.2 nM.

Consider B5, for which the “Av. IC50 (nM) Cyno IL-12, PHA blast assay” value was 0.11 nM.

As to B6, the “Av. IC50 (nM) Cyno IL-12, PHA blast assay” value turned out to be 0.35 nM.

For another assay, the target named is T3, recombinant purified mouse IL-12 (Peprotech) (mouse, UniProt P43432 23-335; P43431 23-215).
T3 construct: Bought reagent; also called mu IL-12; murine IL-12
T3 sequence (looked up) 1: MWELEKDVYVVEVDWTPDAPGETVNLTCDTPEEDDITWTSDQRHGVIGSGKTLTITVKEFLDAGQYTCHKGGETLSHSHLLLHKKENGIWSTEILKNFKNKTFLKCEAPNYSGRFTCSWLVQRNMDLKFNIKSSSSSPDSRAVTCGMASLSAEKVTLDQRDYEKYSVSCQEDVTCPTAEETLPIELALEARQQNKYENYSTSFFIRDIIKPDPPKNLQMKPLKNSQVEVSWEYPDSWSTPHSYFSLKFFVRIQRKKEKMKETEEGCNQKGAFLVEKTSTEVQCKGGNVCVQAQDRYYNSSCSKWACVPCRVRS
T3 sequence (looked up) 2: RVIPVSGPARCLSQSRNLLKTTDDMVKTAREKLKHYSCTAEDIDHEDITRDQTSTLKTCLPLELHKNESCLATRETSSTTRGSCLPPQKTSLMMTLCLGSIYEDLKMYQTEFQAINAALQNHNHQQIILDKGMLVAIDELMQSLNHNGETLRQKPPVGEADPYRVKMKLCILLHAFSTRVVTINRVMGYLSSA
The assay is described as follows: direct ELISA, plate coated with 5 ug/ml recombinant mouse IL-12. As for the experimental part: To determine whether the ten monoclonal antibodies described above recognize murine IL-12, two ELISAs were set up. First, a direct ELISA was set up by directly coating ELISA plates with 5 ug/ml of recombinant purified mouse IL-12 (Peprotech). Murine-anti-human IL-12 p40 mAbs were prepared at various concentrations ranging from 3 to 200 ng/ml in PBS containing 0.1% BSA (Sigma, St. Louis, Mo.). 50 μl of each antibody dilution was added to the coated ELISA plate and incubated for 1 hour at room temperature. Wells were washed 3 times with PBS containing 0.05% Tween-20. Anti-mouse IgG-HRP antibody (R&D #HAF007, Minneapolis, Minn.) was diluted 1:2000 in PBS containing 0.1% BSA; 50 ul/well was added and the plates incubated for 1 hour at room temperature. Fifty microliters of TMB solution (Sigma # T0440, St. Louis, Mo.) was added to each well and incubated for 10 minutes at room temperature. The reaction was stopped by addition of 2N sulphuric acid. Plates were read spectrophotmetrically at a wavelength of 450 nm.
Background: ELISA stands for enzyme-linked immunosorbent assay.
Consider B7, for which the binding result is listed as “no binding (tested: 3 to 200 ng/ml mAb)”.

B8: the binding result is on record as “no binding (tested: 3 to 200 ng/ml mAb)”.

A further assay deals with T1, recombinant purified human IL-12 p70. The assay can be described thus: SPR (BIAcore) as in Example 1.1.B. As for the experimental part:
(§1) The BIACORE assay (Biacore, Inc, Piscataway, N.J.) determines the affinity of antibodies with kinetic measurements of on-, off-rate constants. Binding of antibodies to recombinant purified human IL-12 p70 or recombinant purified human IL-12 p40 were determined by surface plasmon resonance-based measurements with a Biacore® 3000 instrument (Biacore® AB, Uppsala, Sweden) using running HBS-EP (10 mM HEPES [pH 7.4], 150 mM NaCl, 3 mM EDTA, and 0.005% surfactant P20) at 25° C. All chemicals were obtained from Biacore® AB (Uppsala, Sweden) or otherwise from a different source as described in the text. Approximately 5000 RU of goat anti-mouse IgG, (Fcγ), fragment specific polyclonal antibody (Pierce Biotechnology Inc, Rockford, Ill.) diluted in 10 mM sodium acetate (pH 4.5) was directly immobilized across a CM5 research grade biosensor chip using a standard amine coupling kit according to manufacturer's instructions and procedures at 25 μg/ml. Unreacted moieties on the biosensor surface were blocked with ethanolamine. Modified carboxymethyl dextran surface in flowcell 2 and 4 was used as a reaction surface. Unmodified carboxymethyl dextran without goat anti-mouse IgG in flow cell 1 and 3 was used as the reference surface. For kinetic analysis, rate equations derived from the 1:1 Langmuir binding model were fitted simultaneously to association and dissociation phases of all eight injections (using global fit analysis) with the use of Biaevaluation 4.0.1 software. Purified antibodies were diluted in HEPES-buffered saline for capture across goat anti-mouse IgG specific reaction surfaces. Mouse antibodies to be captured as a ligand (25 μg/ml) were injected over reaction matrices at a flow rate of 5 μl/min. The association and dissociation rate constants, kₒₙ (unit M⁻¹ s⁻¹) and koff (unit s⁻¹) were determined under a continuous flow rate of 25 μl/min. Rate constants were derived by making kinetic binding measurements at ten different antigen concentrations ranging from 10-200 nM. The equilibrium dissociation constant (unit M) of the reaction between mouse antibodies and recombinant purified human IL-12 p70 or recombinant purified human IL-12 p40 was then calculated from the kinetic rate constants by the following formula: KD=koff/kₒₙ. Binding is recorded as a function of time and kinetic rate constants are calculated.
In general terms: Surface plasmon resonance follows binding to a sensor surface in real time, without labels.
What is called Kd is a measure of binding affinity in units of concentration. One may read the koff as the first-order rate constant of dissociation. Broadly, the kon is a measure of how fast the partners come together. In the case of B1, the dissociation constant (Kd) is 0.14 nM, the off-rate (koff) was found to be 2.6e-05 s⁻¹ and the kon came out at 190000 M⁻¹ s⁻¹.

Consider B3, for which the equilibrium dissociation constant (Kd) came to 0.074 nM, the dissociation rate constant (koff) turned out to be 2.1e-05 s⁻¹ and the association rate constant (kon) is 280000 M⁻¹ s⁻¹.

For the molecule B4, the dissociation constant (Kd) is 1 nM, the koff was 0.00011 s⁻¹ and the association rate constant (kon) came to 110000 M⁻¹ s⁻¹.

Take B5: the Kd worked out at 0.11 nM, the off-rate constant (koff) was 3.1e-05 s⁻¹ and the association rate constant (kon) is 300000 M⁻¹ s⁻¹.

The next assay shares this target. The assay is described as follows: SPR (Biacore), mAb captured on anti-mouse IgG Fc, IL-12 p70 as analyte. As for the experimental part: as §1
Regarding B7, the Kd was determined as 0.044 nM, the dissociation rate constant (koff) is 2.3e-05 s⁻¹ and the on-rate (kon) stood at 510000 M⁻¹ s⁻¹.

In the case of B8, the Kd worked out at 0.047 nM, the koff came to 3.8e-05 s⁻¹ and the kon was 820000 M⁻¹ s⁻¹.

The next assay shares this target. The assay is described as follows: cell-based or functional assay. The source holds these as a separate data set.
As for B7, the “Average IC50 (nM) Human IL-12, PHA blast IFN-γ assay” value stood at 0.31 nM.

For B8, the “Average IC50 (nM) Human IL-12, PHA blast IFN-γ assay” value was 0.15 nM.

In a further assay the target is T2, recombinant purified cyno IL-12 p70. The assay can be described thus: cell-based or functional assay. This is another data set of the same source.
Regarding B7, the “Average IC50 (nM) Cyno IL-12, PHA blast IFN-γ assay” value stood at 1.4 nM.

On to B8, for which the “Average IC50 (nM) Cyno IL-12, PHA blast IFN-γ assay” value was found to be 0.35 nM.
